This note sets out measurements from patent publication US20240026024A1 (SHANGHAI HUAOTA BIOPHARMACEUTICAL, published 2024).

In experiment [1] the target is T1, mouse CD73/NT5E (ACRO Biosystems, Cat No. CD3-M52H9) (mouse, UniProt Q61503 29-551).
T1 construct: Bought protein
T1 sequence (looked up): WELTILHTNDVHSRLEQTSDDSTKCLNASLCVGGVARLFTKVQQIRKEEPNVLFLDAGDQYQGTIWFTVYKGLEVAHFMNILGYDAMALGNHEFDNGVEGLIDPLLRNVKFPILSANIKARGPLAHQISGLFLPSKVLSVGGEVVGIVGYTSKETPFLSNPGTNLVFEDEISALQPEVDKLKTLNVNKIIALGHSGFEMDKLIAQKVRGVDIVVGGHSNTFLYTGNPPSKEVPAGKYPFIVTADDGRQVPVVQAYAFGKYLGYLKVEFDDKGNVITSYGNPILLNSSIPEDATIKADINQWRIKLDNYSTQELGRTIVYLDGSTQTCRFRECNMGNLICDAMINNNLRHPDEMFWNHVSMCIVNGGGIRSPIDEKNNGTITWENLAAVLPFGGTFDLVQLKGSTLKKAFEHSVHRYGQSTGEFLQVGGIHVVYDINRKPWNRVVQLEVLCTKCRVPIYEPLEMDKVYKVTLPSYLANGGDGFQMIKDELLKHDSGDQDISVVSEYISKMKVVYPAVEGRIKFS
Description: SPR (Biacore T200), antibody captured on protein A chip. Here is the method:
(§1) The temperatures of the sample chamber and flow path were set at 25° C. The protein A chips separately captured the antigen-binding proteins as ligands, which were immobilized at about 100 RU. […] Ten mM Glycine, pH 1.5, was regenerated for 60 s at a flow rate of […] for multiple cycle kinetic detection. The binding rate constant (ka), dissociation rate constant (kd) and dissociation equilibrium rate constant (KD) were fitted using the Fit local mode of a 1:1 binding model.

Experiment [2] addresses T2, rat CD73 (Novoprotein, Cat No. CB16) (rat, UniProt P21588 29-551, limits assumed).
T2 construct: Bought protein
T2 sequence (looked up): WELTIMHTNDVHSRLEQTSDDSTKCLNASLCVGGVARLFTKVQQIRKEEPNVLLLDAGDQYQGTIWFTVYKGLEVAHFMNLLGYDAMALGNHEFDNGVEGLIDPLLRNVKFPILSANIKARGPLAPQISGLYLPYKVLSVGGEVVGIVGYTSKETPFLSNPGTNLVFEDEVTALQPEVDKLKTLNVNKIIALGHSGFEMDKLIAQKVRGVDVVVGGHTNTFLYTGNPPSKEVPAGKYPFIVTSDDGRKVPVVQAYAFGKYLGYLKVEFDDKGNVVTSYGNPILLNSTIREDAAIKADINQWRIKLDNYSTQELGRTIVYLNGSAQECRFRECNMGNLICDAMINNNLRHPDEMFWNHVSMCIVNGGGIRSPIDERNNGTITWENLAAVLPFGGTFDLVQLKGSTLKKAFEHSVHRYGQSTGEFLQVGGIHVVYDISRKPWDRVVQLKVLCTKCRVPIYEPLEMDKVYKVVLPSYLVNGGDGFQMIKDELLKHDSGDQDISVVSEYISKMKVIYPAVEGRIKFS
Described as above. As to the method:
as §1

Experiment [3] has as its target T3, human CD73 protein (ACRO Biosystems, Cat No. CD3-H52H7) (human, UniProt P21589 27-547).
T3 construct: Bought protein; also called recombinant CD73 protein; recombinant CD73
T3 sequence: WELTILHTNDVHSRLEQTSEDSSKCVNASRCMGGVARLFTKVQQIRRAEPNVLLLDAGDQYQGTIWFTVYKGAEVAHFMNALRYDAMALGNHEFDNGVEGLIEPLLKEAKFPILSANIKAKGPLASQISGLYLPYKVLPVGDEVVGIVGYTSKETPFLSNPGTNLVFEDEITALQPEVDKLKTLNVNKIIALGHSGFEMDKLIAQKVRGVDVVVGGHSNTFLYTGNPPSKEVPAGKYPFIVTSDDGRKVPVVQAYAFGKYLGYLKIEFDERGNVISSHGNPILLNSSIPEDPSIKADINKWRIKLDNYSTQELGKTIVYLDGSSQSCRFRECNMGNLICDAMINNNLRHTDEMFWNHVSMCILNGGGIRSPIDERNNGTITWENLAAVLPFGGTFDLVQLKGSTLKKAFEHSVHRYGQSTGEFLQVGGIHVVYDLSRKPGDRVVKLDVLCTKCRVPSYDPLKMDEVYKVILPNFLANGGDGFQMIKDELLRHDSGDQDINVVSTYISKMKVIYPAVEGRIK
Put plainly: SPR (Biacore T200), antibody captured on protein A chip, CD73 as analyte, 1:1 model. As to the method:
The temperatures of the sample chamber and flow path were set at 25° C. The protein A chips separately captured the antigen-binding proteins as ligands, which were immobilized at about 100 RU. […] Ten mM Glycine, pH 1.5, was regenerated for 60 s at a flow rate of 50 μL/min for multiple cycle kinetic detection. The binding rate constant (ka), dissociation rate constant (kd) and dissociation equilibrium rate constant (KD) were fitted using the Fit local mode of a 1:1 binding model.

The target of experiment [4] is T4, human CD73 on the cell surface (human, UniProt P21589 27-549).
T4 sequence: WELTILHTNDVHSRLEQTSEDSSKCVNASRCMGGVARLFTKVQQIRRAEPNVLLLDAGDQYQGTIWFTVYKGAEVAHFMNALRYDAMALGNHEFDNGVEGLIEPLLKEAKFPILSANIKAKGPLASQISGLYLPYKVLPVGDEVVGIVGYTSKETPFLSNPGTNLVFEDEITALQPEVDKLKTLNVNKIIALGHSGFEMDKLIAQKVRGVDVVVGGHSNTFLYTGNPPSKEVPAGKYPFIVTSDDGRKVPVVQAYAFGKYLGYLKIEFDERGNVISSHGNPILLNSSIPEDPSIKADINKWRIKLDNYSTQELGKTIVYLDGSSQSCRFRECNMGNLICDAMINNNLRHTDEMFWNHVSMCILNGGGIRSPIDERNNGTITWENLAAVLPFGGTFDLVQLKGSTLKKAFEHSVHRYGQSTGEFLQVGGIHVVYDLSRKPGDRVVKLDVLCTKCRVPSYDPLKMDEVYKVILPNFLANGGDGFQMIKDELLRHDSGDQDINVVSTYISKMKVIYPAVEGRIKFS
Description: cell-based or functional assay.

The target of experiment [5] is T4, human CD73 on the cell surface. Put plainly: cell-based or functional assay. This is another data set of the same source.

B1: 900695 (antibody, V domains shown)
VH: QVQLVESGGGLVKPGGSLRLSCAASGFTFSKYAMSWVRQAPGKGLEWVAEISSGGGYINYADSVTGRFTISRDNAKNSLYLQMNSLRAEDTAVYYCARAIYYYGSSYNYYAMDYWGQGTTVTVSS
VL: DIQMTQSPSSLSASVGDRVTITCRASQDVGTAEAWYQQKPGKAPKLLIYWASTRHTGVPSRFSGSGSGTDFTLTISSLQPEDFATYYCQQYSSYPLTFGQGTKLEIK
notes: Constant regions are not restated
Take B1: in experiment [1], the binding result was “no binding (tested: up to 50 nM analyte)”. Further, the binding result in experiment [2] is given as “no binding (tested: up to 50 nM analyte)”. Besides, in experiment [3], the Kd (as a rule, the equilibrium constant for the complex coming apart) worked out at 2.04 nM; the dissociation rate constant (koff) (usually the first-order rate constant of dissociation) amounted to 6.03e-05 s⁻¹; the kon – broadly, the rate constant with which the complex forms – turned out to be 29500 M⁻¹ s⁻¹.

B2: 900697 (antibody, V domains shown)
VH: QVQLVESGGGLVKPGGSLRLSCAASGFTFSKYAMSWVRQAPGKGLEWVAEISSGGGYINYADSVTGRFTISRDNAKNSLYLQMNSLRAEDTAVYYCARAIYYYGSSYNYYAMDYWGQGTTVTVSS
VL: DIQMTQSPSSLSASVGDRVTITCRASQDVGTAEAWYQQKPGKAPKLLIYWASTLQSGVPSRFSGSGSGTDFTLTISSLQPEDFATYYCQQYSSYPLTFGQGTKLEIK
notes: as for B1
Take B2: the “EC50(µg/mL), inhibition of enzyme activity of CD73 on CHOK1-huCD73-3F4 cells” value (shortened to “EC50(µg/mL), inhibition”) in experiment [4] is 1.97 µg/mL. The “Endocytosis efficiency (%)” value in experiment [5] is 98.2%. Further, in experiment [1], the binding result is “no binding (tested: up to 50 nM analyte)”. In addition, in experiment [2], the binding result was “no binding (tested: up to 50 nM analyte)”. Besides, in experiment [3], the Kd stood at 1.29 nM, the koff was found to be 0.000492 s⁻¹ and the on-rate (kon) was 380000 M⁻¹ s⁻¹.

B3: 900696 (antibody, V domains shown)
VH: QVQLVESGGGLVKPGGSLRLSCAASGFTFSKYAMSWIRQAPGKGLEWVAEISSGGGYINYADSVKGRFTISRDNAKNSLYLQMNSLRAEDTAVYYCARAIYYYGSSYNYYAMDYWGQGTTVTVSS
VL: DIQMTQSPSSLSASVGDRVTITCRASQDVGTAEAWYQQKPGKAPKLLIYWASTLQSGVPSRFSGSGSGTDFTLTISSLQPEDFATYYCQQYSSYPLTFGQGTKLEIK
notes: as for B1
As to B3, the binding result in experiment [1] is recorded as “no binding (tested: up to 50 nM analyte)”. The binding result in experiment [2] is listed as “no binding (tested: up to 50 nM analyte)”. For the same molecule, in experiment [3], binding was characterised by a dissociation constant (Kd) of 4.23 nM, the koff was 0.000928 s⁻¹ and the on-rate (kon) was found to be 219000 M⁻¹ s⁻¹.

B4: 900698 (antibody, V domains shown)
VH: QVQLVESGGGLVKPGGSLRLSCAASGFTFSKYAMSWIRQAPGKGLEWVAEISSGGGYINYADSVKGRFTISRDNAKNSLYLQMNSLRAEDTAVYYCARAIYYYGSSYNYYAMDYWGQGTTVTVSS
VL: DIQMTQSPSSLSASVGDRVTITCRASQDVGTAEAWYQQKPGKAPKLLIYWASTRHTGVPSRFSGSGSGTDFTLTISSLQPEDFATYYCQQYSSYPLTFGQGTKLEIK
notes: as for B1
With B4, the “EC50(µg/mL), inhibition” value in experiment [4] came out at 1.43 µg/mL. Further, the “Endocytosis efficiency (%)” value in experiment [5] was 96.3%. In addition, in experiment [1], the binding result is reported as “no binding (tested: up to 50 nM analyte)”. Further, in experiment [2], the binding result is “no binding (tested: up to 50 nM analyte)”. For the same molecule, in experiment [3], the equilibrium dissociation constant (Kd) is 3.12 nM, the koff was 0.00106 s⁻¹ and the kon came to 339000 M⁻¹ s⁻¹.

B5: 900581 (antibody, human IgG1, V domains shown)
VH: EVQLVESGGGLVKPGGSLKLSCAASGFTFSKYAMSWVRQSPEKRLEWVAEISSGGGYINYPDTVTGRFTISRDNAKNTLYLEMSSLRSGDTAMYYCARAIYYYGSSYNYYAMDYWGQGTSVTVSS
VL: DIVMTQSHKFMSTSVGDRVSITCKASQDVGTAEAWYQQKPGQSPKLLIYWASTRHTGVPDRFTGSGSGTDFTLTIGNVQSEDLADYFCQQYSSYPLTFGGGTKLEIK
Turning to B5, in experiment [4], the “EC50(µg/mL), inhibition” value was 1.85 µg/mL. In addition, in experiment [5], the “Endocytosis efficiency (%)” value stood at 78.8%. In addition, the binding result in experiment [1] was “no binding (tested: up to 50 nM analyte)”. The binding result in experiment [2] is “no binding (tested: up to 50 nM analyte)”. In experiment [3], this molecule registered an equilibrium dissociation constant (Kd) of 1.65 nM, a koff of 0.000439 s⁻¹ and a kon of 267000 M⁻¹ s⁻¹.
